In paper PMC4191399:
Where a chain is given by its changes, count along the chain named. pKd: −log10 of the molar value.

Tests used:
Experiment in all cases: fluorescence polarization
Details in all cases: internal 6-carboxyfluorescein in backbone between U12 and C13 (central tetraloop bases); 25 mM MOPS pH 7.4, 150 mM KCl, 2 mM DTT, 2 mM MgCl2, 0.01% Triton X-100, 1 nM RNA, room temperature, 1 h
[1] = molecular target: T1, RIG-I Q784A Q784A (Homo sapiens) (UniProt O95786)
T1 sequence: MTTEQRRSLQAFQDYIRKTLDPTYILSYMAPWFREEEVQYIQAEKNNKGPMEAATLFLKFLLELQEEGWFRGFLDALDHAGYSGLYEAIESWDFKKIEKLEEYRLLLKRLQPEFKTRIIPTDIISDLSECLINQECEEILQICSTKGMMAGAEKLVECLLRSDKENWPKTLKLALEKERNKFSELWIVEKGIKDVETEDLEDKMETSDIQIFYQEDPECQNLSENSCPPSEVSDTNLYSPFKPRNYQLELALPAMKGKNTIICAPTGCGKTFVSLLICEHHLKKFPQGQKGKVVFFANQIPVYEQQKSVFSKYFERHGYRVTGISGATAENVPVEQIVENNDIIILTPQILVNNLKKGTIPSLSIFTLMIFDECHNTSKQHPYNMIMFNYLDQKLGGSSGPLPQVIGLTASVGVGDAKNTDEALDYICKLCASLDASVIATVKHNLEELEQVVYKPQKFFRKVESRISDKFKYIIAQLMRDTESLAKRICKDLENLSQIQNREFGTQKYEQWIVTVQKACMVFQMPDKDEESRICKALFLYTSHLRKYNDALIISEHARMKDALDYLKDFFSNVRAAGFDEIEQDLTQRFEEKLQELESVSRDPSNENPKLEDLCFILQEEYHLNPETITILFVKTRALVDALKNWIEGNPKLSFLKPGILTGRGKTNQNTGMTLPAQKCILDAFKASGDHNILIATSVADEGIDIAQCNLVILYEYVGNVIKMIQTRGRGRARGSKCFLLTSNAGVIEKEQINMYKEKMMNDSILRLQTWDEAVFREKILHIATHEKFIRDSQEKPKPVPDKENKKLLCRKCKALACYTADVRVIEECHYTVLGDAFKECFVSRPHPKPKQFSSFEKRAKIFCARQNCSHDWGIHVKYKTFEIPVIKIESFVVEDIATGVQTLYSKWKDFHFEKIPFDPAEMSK

[2] = molecular target: T2, RIG-I Q784A/K788A/R791A Q784A;K788A;R791A (Homo sapiens) (UniProt O95786)
T2 sequence: T1 sequence with K788A, R791A

[3] = molecular target: T3, RIG-I K788A K788A (Homo sapiens) (UniProt O95786)
T3 sequence: T1 sequence with A784Q, K788A

Work on GGACGUACGUUUCGACGUACGUCC [5'OH10L-F] yielded a pKd [1] of 7.62, a pKd [2] of 6.76 and a pKd [3] of 7.66.
